# Numbering of substitutions follows the chain as printed.
# B1: VP30.41 (ssRNA)
# RNA: GGGAGGACGAUGCGGUAGGAAGUAUUGUAAGCGCCUCGUUUUCGCCAGACGACUCGCCCGA
# modifications: 2'-F pyrimidines
# B2: VP30.12 (ssRNA)
# RNA: GGGAGGACGAUGCGGAAUACGGAAGAAUUGGAUACAUAUGCUCGUCAGACGACUCGCCCGA
# modifications: 2'-F pyrimidines
# B3: VT30.13 (ssRNA)
# RNA: GGGAGGACGAUGCGGCAGGAUUUUGGAAGAAUUGGAUAUUGGCCGCAGACGACUCGCCCGA
# modifications: 2'-F pyrimidines
# B4: VP30.25 (ssRNA)
# RNA: B3 RNA with A17G, G45U
# modifications: 2'-F pyrimidines
# B5: VT30.10 (ssRNA)
# RNA: GGGAGGACGAUGCGGAACGGAAGAAUUGGAUACGUAGCAUGCGUCAGACGACUCGCCCGA
# modifications: 2'-F pyrimidines
# B6: VT30.52 (ssRNA)
# RNA: GGGAGGACGAUGCGGAAGAAUUGAGCAUUCCUUCUCCUUGUGCCUCAGACGACUCGCCCGA
# modifications: 2'-F pyrimidines
# B7: VP40.47 (ssRNA)
# RNA: GGGAGGACGAUGCGGCAGUUAAUUAAUUUGAGUUGUGAUGUGUGUCGUUAUGGGCCAGACGACUCGCCCGA
# modifications: 2'-F pyrimidines
# B8: VT30.44 (ssRNA)
# RNA: GGGAGGACGAUGCGGAAUCAGUGAAUGCUUAUACAUCCGCUCGGUCAGACGACUCGCCCGA
# modifications: 2'-F pyrimidines
# B9: VP40.4 (ssRNA)
# RNA: GGGAGGACGAUGCGGGAAGAAUUGAUGUUGUAUUGUCCUUCCGAUUUCCUGCCGUCAGACGACUCGCCCGA
# modifications: 2'-F pyrimidines
# B10: VP30.16 (ssRNA)
# RNA: GGGAGGACGAUGCGGAUGAUCGCGUAGGAAGUAUUGGAAGGCCCUCAGACGACUCGCCCGA
# modifications: 2'-F pyrimidines
# B11: VT30.40 (ssRNA)
# RNA: GGGAGGACGAUGCGGAUUUGGAUGCAUGUCAAGGCGUUUUGCCCUCAGACGACUCGCCCGA
# modifications: 2'-F pyrimidines
# B12: VP30.13 (ssRNA)
# RNA: GGGAGGACGAUGCGGGAUAACAGAAGAAUUGGUGAACAACGUGGUCAGACGACUCGCCCGA
# modifications: 2'-F pyrimidines
# B13: VT30.41 (ssRNA)
# RNA: GGGAGGACGAUGCGGCAGGGUGAAUGCCAAUGUACUUUUCGCGUCAGACGACUCGCCCGA
# modifications: 2'-F pyrimidines
# B14: VT30.18 (ssRNA)
# RNA: GGGAGGACGAUGCGGUUCAGAAUUGGCUGCGAUCCUUUUCCCCCUCAGACGACUCGCCCGA
# modifications: 2'-F pyrimidines
# B15: VT30.8 (ssRNA)
# RNA: GGGAGGACGAUGCGGUUGAUCGAUUUUCCUGGCGUCCUUAUGGGUCAGACGACUCGCCCGA
# modifications: 2'-F pyrimidines
# B16: VP30.19 (ssRNA)
# RNA: GGGAGGACGAUGCGGCACUUUAGAAGAAUUGAAUUUCCCGCUGGUCAGACGACUCGCCCGA
# modifications: 2'-F pyrimidines
# B17: VT30.21 (ssRNA)
# RNA: GGGAGGACGAUGCGGAUCAGUGAAUGCUUAUAGACCGUAUUGCGUCAGACGACUCGCCCGA
# modifications: 2'-F pyrimidines
# B18: VT30.9 (ssRNA)
# RNA: GGGAGGACGAUGCGGUCAACCGGUUGAAUAUUUGGUCGCUGACCUCAGACGACUCGCCCGA
# modifications: 2'-F pyrimidines
# B19: VT30.20 (ssRNA)
# RNA: GGGAGGACGAUGCGGAAACGGAAGAAUUGGAUACCGCUACGUGUUCAGACGACUCGCCCGA
# modifications: 2'-F pyrimidines
# B20: VT30.12 (ssRNA)
# RNA: GGGAGGACGAUGCGGUCUUUGGGUUUUUGCCAACGGUUUUCGCUCAGACGACUCGCCCGA
# modifications: 2'-F pyrimidines
# B21: VP30.1 (ssRNA)
# RNA: B20 RNA with G22A
# modifications: 2'-F pyrimidines
# B22: VP30.51 (ssRNA)
# RNA: GGGAGGACGAUGCGGAGUUUUGGAAGAAUUGGAUGUUCCGAUCGUCAGACGACUCGCCCGA
# modifications: 2'-F pyrimidines
# B23: VT30.23 (ssRNA)
# RNA: GGGAGGACGAUGCGGGAUCACGAUACUUGACGAUUUUCCUCUCCUCAGACGACUCGCCCGA
# modifications: 2'-F pyrimidines
# B24: VP40.17 (ssRNA)
# RNA: GGGAGGACGAUGCGGUGAACCGAUGGAAUCGCUUGGACGCUCAUCGCACGUUGCUCAGACGACUCGCCCGA
# modifications: 2'-F pyrimidines
# B25: VP40.43 (ssRNA)
# RNA: GGGAGGACGAUGCGGACAGAAGAAUUGGGCUUCGCAUUAUCCUCUGUCAGCCGCCAGACGACUCGCCCGA
# modifications: 2'-F pyrimidines
# B26: VT30.54 (ssRNA)
# RNA: GGGAGGACGAUGCGGGACUAGGUGAAUGCCAAUAUUCUUCUCCGUCAGACGACUCGCCCGA
# modifications: 2'-F pyrimidines
# B27: VT30.11 (ssRNA)
# RNA: GGGAGGACGAUGCGGAAUCAGUGAAUGCUUAUAGCUCCCGCGUCCUCAGACGACUCGCCCGA
# modifications: 2'-F pyrimidines
# B28: VT30.1 (ssRNA)
# RNA: GGGAGGACGAUGCGGAACUAGUGAAUGCUUAUACGACCGUGUUGUCAGACGACUCGCCCGA
# modifications: 2'-F pyrimidines
# B29: VT30.29 (ssRNA)
# RNA: B8 RNA with C34G, A35C, U41G, C42U
# modifications: 2'-F pyrimidines
# B30: VT30.27 (ssRNA)
# RNA: GGGAGGACGAUGCGGGAUCACGGCUUUGCACGAUCUUCUUCUCCUCAGACGACUCGCCCGA
# modifications: 2'-F pyrimidines
# B31: VT30.4 (ssRNA)
# RNA: GGGAGGACGAUGCGGCUUAAGUUUUGGAAGAAUUGAAUACUGGGUCAGACGACUCGCCCGA
# modifications: 2'-F pyrimidines
# B32: VT30.28 (ssRNA)
# RNA: GGGAGGACGAUGCGGAGAAUCAGUGAAUGCUUAUAAACCUCGUGUCAGACGACUCGCCCGA
# modifications: 2'-F pyrimidines
# B33: VP30.7 (ssRNA)
# RNA: GGGAGGACGAUGCGGAAGAAUUGGUCAUCGUCGUCUCCGCCUCCCCAGACGACUCGCCCGA
# modifications: 2'-F pyrimidines
# B34: VP40.44 (ssRNA)
# RNA: GGGAGGACGAUGCGGAUCUGUUGAACUGGGUUUUGCCGACGGUUACGCUUUUGCUCAGACGACUCGCCCGA
# modifications: 2'-F pyrimidines
# B35: VP40.14 (ssRNA)
# RNA: GGGAGGACGAUGCGGGUACCAGAAUGAGCAACCGAAUGAAGAACUGGACGCUGCUCAGACGACUCGCCCGA
# modifications: 2'-F pyrimidines
# B36: VT30.15 (ssRNA)
# RNA: GGGAGGACGAUGCGGAACCAGUGAAUGCUUAUAAGACUGCUCGUCAGACGACUCGCCCGA
# modifications: 2'-F pyrimidines
# B37: VP40.41 (ssRNA)
# RNA: GGGAGGACGAUGCGGCAAAUUCAAGGUCGAGUUAUGCGUAGAUGUGGCUCCUGUGCAGACGACUCGCCCGA
# modifications: 2'-F pyrimidines
# B38: VP30.31 (ssRNA)
# RNA: GGGAGGACGAUGCGGUAACCGAUUGAACUUCUUGGACGCUACCGUCAGACGACUCGCCCGA
# modifications: 2'-F pyrimidines
# B39: VT30.7 (ssRNA)
# RNA: GGGAGGACGAUGCGGUAACCAGUGGAAGAAUUGGCUGCUAUCCUCAGACGACUCGCCCGA
# modifications: 2'-F pyrimidines
# B40: VT30.2 (ssRNA)
# RNA: GGGAGGACGAUGCGGAUCAGUGAAUGCUUAUAGACCGCCUCCGUCAGACGACUCGCCCGA
# modifications: 2'-F pyrimidines
# B41: VP30.54 (ssRNA)
# RNA: GGGAGGACGAUGCGGAAGAAACGGAAGAAUUGGAGACACGCUCGUCAGACGACUCGCCCGA
# modifications: 2'-F pyrimidines
# B42: VT30.53 (ssRNA)
# RNA: B41 RNA with A17G, G18C, A19U, G35A, C39A, G40C, U42G
# modifications: 2'-F pyrimidines
# B43: VP40.9 (ssRNA)
# RNA: GGGAGGACGAUGCGGGAGCAGAACCGAUAGAAGAAUUGGACGCUCAGCUCCGGGUCAGACGACUCGCCCGA
# modifications: 2'-F pyrimidines
# B44: VP30.43 (ssRNA)
# RNA: GGGAGGACGAUGCGGUAACCGAAUUGAAGUUAUUGGACGCUACCUCAGACGACUCGCCCGA
# modifications: 2'-F pyrimidines
# B45: VP40.53 (ssRNA)
# RNA: GGGAGGACGAUGCGGUGAGAGAAACGGAAGAAUUGGAUACGAUACUCAUCGCGCUCAGACGACUCGCCCGA
# modifications: 2'-F pyrimidines
# B46: VT30.38 (ssRNA)
# RNA: GGGAGGACGAUGCGGAGCGGUAUUCUGUUCGGUCGUUUUCCUCCUCAGACGACUCGCCCGA
# modifications: 2'-F pyrimidines
# Target: VEGF165 (Homo sapiens, UniProt P15692-4 P15692-4:27-191)
# Sequence (P15692 other isoform, or with tags, fused parts or gaps): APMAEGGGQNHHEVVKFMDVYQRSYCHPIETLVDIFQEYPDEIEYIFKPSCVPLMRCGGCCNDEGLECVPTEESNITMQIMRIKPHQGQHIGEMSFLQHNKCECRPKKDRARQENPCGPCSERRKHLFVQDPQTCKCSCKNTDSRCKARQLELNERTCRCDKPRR
# Experiment: filter; 37 C
# Conditions: tags: carrier-free, Sf 21 insect cell expressed, R & D Systems; chain copies: 2 (inferred)
# Experimental: Nucleic Acid Ligands radiolabeled during transcription by incorporation of α-[³²P]-labeled NTPs, or after synthesis using γ-[³²P]-ATP and T4 polynucleotide kinase, were incubated in low concentration (between 20 and 70 pM) with varying concentrations of VEGF or other growth factors at 37° C. for 15 minutes. Incubations were in TBS, PBS, or HEPES-buffered saline (HBS), pH 7.4, with or without the addition of supplemental divalent cations. Samples were passed through prewashed 0.45 μ Type HA filters (Millipore) followed by a 5-10 ml wash with binding buffer. Filters were immersed in scintillant and counted to quantitate the amount of protein-bound RNA retained by each filter. The equilibrium dissociation constant (KD) of Nucleic Acid Ligand binding to a specific protein was calculated from the data points as described in Green et al. (1996) Biochem. 35: 14413-14424.
row,Binder,Kd [nM]
1,B1,0.007
2,B2,0.007
3,B3,0.01
4,B4,0.02
5,B5,0.002
6,B6,9
7,B7,0.096
8,B8,0.01
9,B9,0.2
10,B10,0.006
11,B11,0.03
12,B12,0.01
13,B13,0.04
14,B14,0.004
15,B15,0.034
16,B16,0.009
17,B17,0.006
18,B18,0.03
19,B19,0.004
20,B20,0.009
21,B21,32
22,B22,0.09
23,B23,0.019

row,Binder,Kd [nM]
1,B24,0.01
2,B25,0.03
3,B26,0.01
4,B27,0.004
5,B28,0.01
6,B29,0.01
7,B30,0.12
8,B31,0.02
9,B32,0.06
10,B33,3
11,B34,0.043
12,B35,0.008
13,B36,0.003
14,B37,11
15,B38,0.006
16,B39,0.01
17,B40,0.002
18,B41,0.01
19,B42,0.01
20,B43,0.03
21,B44,0.005
22,B45,0.008
23,B46,0.005

# Source: US20030114404, “Vascular endothelial growth factor (VEGF) nucleic acid ligand complexes” (Gilead Sciences, Inc., published 2003)
